Experimental data as given in PMC12485088.

Tests used:
[1] = target: full-length human CXCR4 with a C-terminal Flag-tag (human) (UniProt P61073); assay: cryo-EM structure
[2] = target: T1, full-length human CXCR4 with a C-terminal Flag-tag (human), P61073; assay: native gel or EMSA; details: remark: other sources report otherwise
T1 chain: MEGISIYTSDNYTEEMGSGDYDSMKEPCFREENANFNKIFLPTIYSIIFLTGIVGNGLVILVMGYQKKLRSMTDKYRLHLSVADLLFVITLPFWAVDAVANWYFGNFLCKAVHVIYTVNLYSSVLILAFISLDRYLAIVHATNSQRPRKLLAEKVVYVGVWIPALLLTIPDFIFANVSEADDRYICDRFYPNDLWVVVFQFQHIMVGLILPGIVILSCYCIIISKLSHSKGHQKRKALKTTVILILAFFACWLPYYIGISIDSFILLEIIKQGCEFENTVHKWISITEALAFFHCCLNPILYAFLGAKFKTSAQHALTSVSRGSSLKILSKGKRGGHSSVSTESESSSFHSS

[3] = target: T1, full-length human CXCR4 with a …; assay: cryo-EM structure; details: remark: other sources report otherwise

“gp120^HIV-2-CD4 complex (from UniProt P01730 26-388)” showed a stoichiometry N (gp120 per CXCR4 tetramer) [1] of 2.

B1: full-length human CXCR4 with a C-terminal Flag-tag, P61073 1-352 (receptor)
chain: T1 chain
B1 showed a stoichiometry N (protomers in the oligomer (main peak)) [2] of 4 and a stoichiometry N (protomers in the oligomer) [3] of 4.
